Results reported in US20190177417A1 (BIOATLA, published 2019).

T1: Axl protein (human, UniProt P30530 26-451)
T1 construct: extracellular domain; also called human Axl; hAxl
T1 sequence (looked up): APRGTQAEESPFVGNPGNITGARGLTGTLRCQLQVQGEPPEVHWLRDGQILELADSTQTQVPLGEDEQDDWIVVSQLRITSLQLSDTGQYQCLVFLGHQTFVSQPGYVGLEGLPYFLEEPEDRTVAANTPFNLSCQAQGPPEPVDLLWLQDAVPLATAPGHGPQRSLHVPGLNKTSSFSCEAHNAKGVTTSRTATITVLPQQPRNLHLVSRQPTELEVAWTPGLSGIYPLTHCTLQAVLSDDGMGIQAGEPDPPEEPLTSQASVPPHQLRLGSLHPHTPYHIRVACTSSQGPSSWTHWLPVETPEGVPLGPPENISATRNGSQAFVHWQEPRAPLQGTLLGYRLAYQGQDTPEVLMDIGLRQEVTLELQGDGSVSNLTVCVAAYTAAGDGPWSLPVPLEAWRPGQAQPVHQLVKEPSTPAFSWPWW

B1: HC-T030A (antibody, V domains shown)
VH: EVQLVQSGAEVKKPGATVKISCKVSGYSFAGHTMNWIRQPPGKGLEWIGLIKPSNGGTSYNQKFKGRVTISADKSISTAYLQWSSLKASDTAMYYCAHGHYESYFAMDYWGQGTLVTVSS
VL: DIQMTQSPSSLSASVGDRVTITCKASQDVSSAVAWYQQKPGQAPRLLIYWASTRHTGVPSRFSGSGSGTEFTLTISSLQPDDFATYYCQEHFSTPLTFGQGTKVEIK
B2: HC-W110H (antibody, V domains shown)
VH: EVQLVQSGAEVKKPGATVKISCKVSGYSFTGHTMNWIRQPPGKGLEWIGLIKPSNGGTSYNQKFKGRVTISADKSISTAYLQWSSLKASDTAMYYCAHGHYESYFAMDYHGQGTLVTVSS
VL: DIQMTQSPSSLSASVGDRVTITCKASQDVSSAVAWYQQKPGQAPRLLIYWASTRHTGVPSRFSGSGSGTEFTLTISSLQPDDFATYYCQEHFSTPLTFGQGTKVEIK
B3: HC-E102Y (antibody, V domains shown)
VH: EVQLVQSGAEVKKPGATVKISCKVSGYSFTGHTMNWIRQPPGKGLEWIGLIKPSNGGTSYNQKFKGRVTISADKSISTAYLQWSSLKASDTAMYYCAHGHYYSYFAMDYWGQGTLVTVSS
VL: DIQMTQSPSSLSASVGDRVTITCKASQDVSSAVAWYQQKPGQAPRLLIYWASTRHTGVPSRFSGSGSGTEFTLTISSLQPDDFATYYCQEHFSTPLTFGQGTKVEIK
B4: HC-E102R (antibody, V domains shown)
VH: EVQLVQSGAEVKKPGATVKISCKVSGYSFTGHTMNWIRQPPGKGLEWIGLIKPSNGGTSYNQKFKGRVTISADKSISTAYLQWSSLKASDTAMYYCAHGHYRSYFAMDYWGQGTLVTVSS
VL: DIQMTQSPSSLSASVGDRVTITCKASQDVSSAVAWYQQKPGQAPRLLIYWASTRHTGVPSRFSGSGSGTEFTLTISSLQPDDFATYYCQEHFSTPLTFGQGTKVEIK
B5: HC-S059I (antibody, V domains shown)
VH: EVQLVQSGAEVKKPGATVKISCKVSGYSFTGHTMNWIRQPPGKGLEWIGLIKPSNGGTIYNQKFKGRVTISADKSISTAYLQWSSLKASDTAMYYCAHGHYESYFAMDYWGQGTLVTVSS
VL: DIQMTQSPSSLSASVGDRVTITCKASQDVSSAVAWYQQKPGQAPRLLIYWASTRHTGVPSRFSGSGSGTEFTLTISSLQPDDFATYYCQEHFSTPLTFGQGTKVEIK
B6: HC-E102N (antibody, V domains shown)
VH: EVQLVQSGAEVKKPGATVKISCKVSGYSFTGHTMNWIRQPPGKGLEWIGLIKPSNGGTSYNQKFKGRVTISADKSISTAYLQWSSLKASDTAMYYCAHGHYNSYFAMDYWGQGTLVTVSS
VL: DIQMTQSPSSLSASVGDRVTITCKASQDVSSAVAWYQQKPGQAPRLLIYWASTRHTGVPSRFSGSGSGTEFTLTISSLQPDDFATYYCQEHFSTPLTFGQGTKVEIK
B7: HC-P053N (antibody, V domains shown)
VH: EVQLVQSGAEVKKPGATVKISCKVSGYSFTGHTMNWIRQPPGKGLEWIGLIKNSNGGTSYNQKFKGRVTISADKSISTAYLQWSSLKASDTAMYYCAHGHYESYFAMDYWGQGTLVTVSS
VL: DIQMTQSPSSLSASVGDRVTITCKASQDVSSAVAWYQQKPGQAPRLLIYWASTRHTGVPSRFSGSGSGTEFTLTISSLQPDDFATYYCQEHFSTPLTFGQGTKVEIK
B8: HC-E102V (antibody, V domains shown)
VH: EVQLVQSGAEVKKPGATVKISCKVSGYSFTGHTMNWIRQPPGKGLEWIGLIKPSNGGTSYNQKFKGRVTISADKSISTAYLQWSSLKASDTAMYYCAHGHYVSYFAMDYWGQGTLVTVSS
VL: DIQMTQSPSSLSASVGDRVTITCKASQDVSSAVAWYQQKPGQAPRLLIYWASTRHTGVPSRFSGSGSGTEFTLTISSLQPDDFATYYCQEHFSTPLTFGQGTKVEIK
B9: HC-S103D (antibody, V domains shown)
VH: EVQLVQSGAEVKKPGATVKISCKVSGYSFTGHTMNWIRQPPGKGLEWIGLIKPSNGGTSYNQKFKGRVTISADKSISTAYLQWSSLKASDTAMYYCAHGHYEDYFAMDYWGQGTLVTVSS
VL: DIQMTQSPSSLSASVGDRVTITCKASQDVSSAVAWYQQKPGQAPRLLIYWASTRHTGVPSRFSGSGSGTEFTLTISSLQPDDFATYYCQEHFSTPLTFGQGTKVEIK
B10: HC-S059T (antibody, V domains shown)
VH: EVQLVQSGAEVKKPGATVKISCKVSGYSFTGHTMNWIRQPPGKGLEWIGLIKPSNGGTTYNQKFKGRVTISADKSISTAYLQWSSLKASDTAMYYCAHGHYESYFAMDYWGQGTLVTVSS
VL: DIQMTQSPSSLSASVGDRVTITCKASQDVSSAVAWYQQKPGQAPRLLIYWASTRHTGVPSRFSGSGSGTEFTLTISSLQPDDFATYYCQEHFSTPLTFGQGTKVEIK
B11: HC-H100E (antibody, V domains shown)
VH: EVQLVQSGAEVKKPGATVKISCKVSGYSFTGHTMNWIRQPPGKGLEWIGLIKPSNGGTSYNQKFKGRVTISADKSISTAYLQWSSLKASDTAMYYCAHGEYESYFAMDYWGQGTLVTVSS
VL: DIQMTQSPSSLSASVGDRVTITCKASQDVSSAVAWYQQKPGQAPRLLIYWASTRHTGVPSRFSGSGSGTEFTLTISSLQPDDFATYYCQEHFSTPLTFGQGTKVEIK
B12: HC-S103N (antibody, V domains shown)
VH: EVQLVQSGAEVKKPGATVKISCKVSGYSFTGHTMNWIRQPPGKGLEWIGLIKPSNGGTSYNQKFKGRVTISADKSISTAYLQWSSLKASDTAMYYCAHGHYENYFAMDYWGQGTLVTVSS
VL: DIQMTQSPSSLSASVGDRVTITCKASQDVSSAVAWYQQKPGQAPRLLIYWASTRHTGVPSRFSGSGSGTEFTLTISSLQPDDFATYYCQEHFSTPLTFGQGTKVEIK
B13: HC-N035I (antibody, V domains shown)
VH: EVQLVQSGAEVKKPGATVKISCKVSGYSFTGHTMIWIRQPPGKGLEWIGLIKPSNGGTSYNQKFKGRVTISADKSISTAYLQWSSLKASDTAMYYCAHGHYESYFAMDYWGQGTLVTVSS
VL: DIQMTQSPSSLSASVGDRVTITCKASQDVSSAVAWYQQKPGQAPRLLIYWASTRHTGVPSRFSGSGSGTEFTLTISSLQPDDFATYYCQEHFSTPLTFGQGTKVEIK
B14: HC-H100D (antibody, V domains shown)
VH: EVQLVQSGAEVKKPGATVKISCKVSGYSFTGHTMNWIRQPPGKGLEWIGLIKPSNGGTSYNQKFKGRVTISADKSISTAYLQWSSLKASDTAMYYCAHGDYESYFAMDYWGQGTLVTVSS
VL: DIQMTQSPSSLSASVGDRVTITCKASQDVSSAVAWYQQKPGQAPRLLIYWASTRHTGVPSRFSGSGSGTEFTLTISSLQPDDFATYYCQEHFSTPLTFGQGTKVEIK
B15: HC-E102L (antibody, V domains shown)
VH: EVQLVQSGAEVKKPGATVKISCKVSGYSFTGHTMNWIRQPPGKGLEWIGLIKPSNGGTSYNQKFKGRVTISADKSISTAYLQWSSLKASDTAMYYCAHGHYLSYFAMDYWGQGTLVTVSS
VL: DIQMTQSPSSLSASVGDRVTITCKASQDVSSAVAWYQQKPGQAPRLLIYWASTRHTGVPSRFSGSGSGTEFTLTISSLQPDDFATYYCQEHFSTPLTFGQGTKVEIK
B16: HC-H100R (antibody, V domains shown)
VH: EVQLVQSGAEVKKPGATVKISCKVSGYSFTGHTMNWIRQPPGKGLEWIGLIKPSNGGTSYNQKFKGRVTISADKSISTAYLQWSSLKASDTAMYYCAHGRYESYFAMDYWGQGTLVTVSS
VL: DIQMTQSPSSLSASVGDRVTITCKASQDVSSAVAWYQQKPGQAPRLLIYWASTRHTGVPSRFSGSGSGTEFTLTISSLQPDDFATYYCQEHFSTPLTFGQGTKVEIK
B17: HC-S103M (antibody, V domains shown)
VH: EVQLVQSGAEVKKPGATVKISCKVSGYSFTGHTMNWIRQPPGKGLEWIGLIKPSNGGTSYNQKFKGRVTISADKSISTAYLQWSSLKASDTAMYYCAHGHYEMYFAMDYWGQGTLVTVSS
VL: DIQMTQSPSSLSASVGDRVTITCKASQDVSSAVAWYQQKPGQAPRLLIYWASTRHTGVPSRFSGSGSGTEFTLTISSLQPDDFATYYCQEHFSTPLTFGQGTKVEIK

Legend:
Axl protein [1] = target: T1, Axl protein; assay: ELISA, 1:3 dilution, pH 6.0 over pH 7.4
Axl protein [2] = target: T1, Axl protein; assay: ELISA, 1:9 dilution, pH 6.0 over pH 7.4

Row | Binder | Affinity ELISA CPE mutant ratio (1:3, pH 6.0/7.4) (Axl protein [1]) [ratio] | Affinity ELISA CPE mutant ratio (1:9, pH 6.0/7.4) (Axl protein [2]) [ratio]
1 | B1 | 1.29 | 1.76
2 | B2 | 7.99 | 0.932
3 | B3 | 2.61 | 1.99
4 | B4 | 3.7 | 3.42
5 | B5 | 30.5 | 2.06
6 | B6 | 1.52 | 1.57
7 | B7 | 1.4 | 1.89
8 | B8 | 1.93 | 2.51
9 | B9 | 4.24 | 2.23
10 | B10 | 1.02 | 1.93
11 | B11 | 2.77 | 3.62
12 | B12 | 1.07 | 3.18
13 | B13 | 2.81 | 1.12
14 | B14 | 2.42 | 3.09
15 | B15 | 3.27 | 2.7
16 | B16 | 1.88 | 2.51
17 | B17 | 1.78 | 1.81
